Kd, koff and kon data for three substances are collected here from publication PMC4368477.

The assay has as its target HA head of H1N1 A/Solomon Islands/3/2006 (Influenza A virus, A/Solomon Islands/3/2006 (H1N1)). Put plainly: BLI.

The substance “CH67 Fab with light-chain reversion R29S” gave a Kd of 0.37 µM, a koff of 0.019 s⁻¹ and a kon of 52000 M⁻¹ s⁻¹.

Regarding “CH67 Fab with light-chain reversions D33H and R31S”, the Kd amounted to 1.5 µM and the dissociation rate constant (koff) is 0.067 s⁻¹.

For “CH65 Fab with light-chain reversion R29S”, the Kd was determined as 1.21 µM.
